“Also recorded” adds a separate entry of the source.
Legend:
[1] = ELISA binding to non-CDIM antigen cardiolipin; details: maximal reaction (OD450 nm), IgM at 10 μg/ml
Protocol: (§1) This example describes the binding specificity of the CDIM binding proteins for antigens other than CDIM. The antibodies were purified by affinity chromatography. Antibodies were tested across a broad dose range against a panel of antigens available in commercially available ELISA kits. ELISA plates pre-coated with the antigens, ssDNA (Inova Diagnostics, Inc, San Diego, Calif.), dsDNA (Inova Diagnostics, Inc., San Diego, Calif.), cardiolipin (Inova Diagnostics, Inc., San Diego, Calif.) MDA-LDL (malondialdehyde modified low density lipoprotein) (Rocky Mountain Diagnostics, Colorado Springs, Colo.) were purchased from various vendors. Lipid A (Avanti Polar Lipids, Alabaster, Ala.) was purchased as an antigen, dissolved in ethanol and diluted in 100 mM Na carbonate buffer at pH 9.5 prior to coating onto ELISA plates. Anti-CDIM antibodies were used at concentrations indicated and ELISA was performed according to manufacturers recommendations. Briefly, plates were blocked with BSA-milk powder for 1 hour, followed by washing. The disclosed antibodies were added at the concentrations indicated. The antibodies were allowed to bind for 1.5 hours at room temperature followed by a wash step. The HRP-conjugated anti-human IgM antibody was added, followed by substrate addition. Results were quantified using absorbance at 450 nm (Bio-Tek Synergy HT). […]

[2] = tested on: Human pro-B NALM-6 cells; test: Human complement dependent cytotoxicity (CDC) assay, CCK8; type: cell-based; details: Nalm-6 cells with human complement, 24 hours, supernatant containing expressed antibody
Description: “Complement-dependent cytotoxicity” or “CDC” refers to the lysis of a target cell in the presence of complement. Activation of the classical complement pathway is initiated by the binding of the first component of the complement system (CIq) to antibodies, which are bound to their cognate antigen. To assess complement activation, a CDC assay, as described in Hinton et al, J. Immunol. 2006 Jan. 1; 176(1):346-56, may be performed. Briefly, this example describes how the cytotoxicity of the CDIM binding proteins was investigated. Human pro-B NALM-6 cells (50,000) were plated in a 96-well flat bottom microtiter plate. […] After 24 hours, a colorimetric substrate CCK8 was added for 3 hours and then the optical density (OD) was measured at 450 nm wavelength on a Microtiter Plate Reader. Quantification of the increase in OD is directly proportional to viable proliferating NALM-6 cells. […] The IC50 was calculated for each antibody using the same approach as described above.
TABLE 2 summarizes the data shown in FIG. 6 and FIGS. 7A-7F for the CDIM binding proteins comprising variable heavy chains H1, H2, H3, H4, H5, H6, H7, H9, H10, H11, H12, H13, H14, H15, H16, H17, H18, H19, H20, and H21, respectively. The ELISA value refers to the concentration of IgM determined in the conditioned media following transient transfection of IgM heavy and light chains. […]

[3] = ELISA binding to non-CDIM antigen LPS; details: maximal reaction (OD450 nm), IgM at 10 μg/ml
Protocol: as §1

[4] = ELISA binding to panel of antigens other than CDIM (FIGS. 8 and 9); details: broad dose range, absorbance at 450 nm, listed as MAb 216
Description: FIG. 8, panels A-E depict ELISA based binding data that is representative of the CDIM binding proteins to antigens other than CDIM. Results using the antigens single stranded DNA (ssDNA), double stranded DNA (dsDNA), lipid A, cardiolipin, and maleonaldehyde LDL (MDA-LDL) are shown in panels A-E, respectively.
FIG. 9, panels A-F depict ELISA based binding data that is representative of the CDIM binding proteins to antigens other than CDIM. Results using the antigens single stranded DNA (ssDNA), double stranded DNA (dsDNA), lipopolysaccharide, cardiolipin, chondoitrin and heparan, are shown in panels A-F, respectively.
This example describes the binding specificity of the CDIM binding proteins for antigens other than CDIM. The antibodies were purified by affinity chromatography. Antibodies were tested across a broad dose range against a panel of antigens available in commercially available ELISA kits. ELISA plates pre-coated with the antigens, ssDNA (Inova Diagnostics, Inc, San Diego, Calif.), dsDNA (Inova Diagnostics, Inc., San Diego, Calif.), cardiolipin (Inova Diagnostics, Inc., San Diego, Calif.) MDA-LDL (malondialdehyde modified low density lipoprotein) (Rocky Mountain Diagnostics, Colorado Springs, Colo.) were purchased from various vendors. […] Results were quantified using absorbance at 450 nm (Bio-Tek Synergy HT).

[5] = ELISA binding to non-CDIM antigen heparan sulfate; details: maximal reaction (OD450 nm), IgM at 10 μg/ml
Protocol: as §1

[6] = tested on: ss DNA; test: ELISA binding to non-CDIM antigen ssDNA; details: maximal reaction (OD450 nm), IgM at 10 μg/ml
Protocol: as §1

[7] = ELISA binding to non-CDIM antigen chondroitin sulfate; details: maximal reaction (OD450 nm), IgM at 10 μg/ml
[8] = tested on: ds DNA; test: ELISA binding to non-CDIM antigen dsDNA; details: maximal reaction (OD450 nm), IgM at 10 μg/ml
Protocol: as §1

B1: hm216: naturally occurring human monoclonal IgM CDIM binding antibody (SEQ ID NO: 108), used as experimental reference antibody (protein)
chain: QVQLQQWGAGLLKPSETLSLTCAVYGGSFSGYYWSWIRQPPGKGLEWIGEINHSGSTNYNPSLKSRVTISVDTSKNQFSLKLSSVTAADTAVYYCARARTARGSSIFDYWGQGTLVTVSSGSASAPTLFPLVSCENSPSDTSSVAVGCLAQDFLPDSITFSWKYKNNSDISSTRGFPSVLRGGKYAATSQVLLPSKDVMQGTDEHVVCKVQHPNGNKEKNVPLPVIAELPPKVSVFVPPRDGFFGNPRKSKLICQATGFSPRQIQVSWLREGKQVGSGVTTDQVQAEAKESGPTTYKVTSTLTIKESDWLSQSMFTCRVDHRGLTFQQNASSMCVPDQDTAIRVFAIPPSFASIFLTKSTKLTCLVTDLTTYDSVTISWTRQNGEAVKTHTNISESHPNATFSAVGEASICEDDWNSGERFTCTVTHTDLPSPLKQTISRPKGVALHRPDVYLLPPAREQLNLRESATITCLVTGFSPADVFVQWMQRGQPLSPEKYVTSAPMPEPQAPGRYFAHSILTVSEEEWNTGETYTCVVAHEALPNRVTERTVDKSTGKPTLYNVSLVMSDTAGTCY
- Cardiolipin relative reactivity [1]: +++ (The (+), (++), (+++) and (++++) scores are given for maximal ELISA values of 0.3 to 1, 1 to 2, 2 to 3 and above 3, respectively)
- Cytotoxicity IC50 [2]: 1.762 µg/mL
- LPS relative reactivity [3]: ++++ (The (+), (++), (+++) and (++++) scores are given for maximal ELISA values of 0.3 to 1, 1 to 2, 2 to 3 and above 3, respectively)
- Binding to antigens other than CDIM [4]: binds to all the antigens tested; also recorded: binds to all of the antigens across a broad dose range
- Heparan Sulfate relative reactivity [5]: ++++ (The (+), (++), (+++) and (++++) scores are given for maximal ELISA values of 0.3 to 1, 1 to 2, 2 to 3 and above 3, respectively)
- ss DNA relative reactivity [6]: ++++ (The (+), (++), (+++) and (++++) scores are given for maximal ELISA values of 0.3 to 1, 1 to 2, 2 to 3 and above 3, respectively)
- Chondroitin Sulfate relative reactivity [7]: ++++ (The (+), (++), (+++) and (++++) scores are given for maximal ELISA values of 0.3 to 1, 1 to 2, 2 to 3 and above 3, respectively)
- ds DNA relative reactivity [8]: ++++ (The (+), (++), (+++) and (++++) scores are given for maximal ELISA values of 0.3 to 1, 1 to 2, 2 to 3 and above 3, respectively)

From patent US9409976B2, “CDIM binding proteins and uses thereof” (IGM BIOSCIENCES, INC., priority 2012, dated 2016)
